Data reported in patent US20230059344A1.

Target: h4-1-BB on a genetically engineered Jurkat T cell line (Promega 4-1BB Bioassay) (human) (UniProt Q07011)
Test: cell-based or functional assay
Conditions: scale: relative luciferase

h4-1-BB on a genetically engineered Jurkat T cell line (Promega 4-1BB Bioassay) (human), sequence (Q07011 24-255, change not shown): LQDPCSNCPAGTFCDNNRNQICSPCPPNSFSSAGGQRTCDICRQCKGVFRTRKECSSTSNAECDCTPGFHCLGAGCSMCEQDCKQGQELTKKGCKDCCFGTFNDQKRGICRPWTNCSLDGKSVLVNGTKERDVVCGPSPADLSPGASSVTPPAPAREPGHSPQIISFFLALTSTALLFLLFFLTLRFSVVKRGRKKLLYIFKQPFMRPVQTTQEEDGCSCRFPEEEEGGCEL

“His-tagged h4-1BBL cross-linked with an Fc (from UniProt P41273 71-254) (ligand)” was tested, and the luciferase expression by Jurkat-h4-1BB cells was 1.
